By Kd is commonly meant the equilibrium constant for the complex coming apart. A lower Kd goes with higher affinity.

Where two headings read alike, the source gives them in different places.

Kd data for six molecules are collected here from paper PMC2367706.

What all share (assay): EMSA
Background: Mobility shift assays separate free from complexed probe on a gel.

In data set [1] the target is T1, GST:CD+HD (UniProt Q01826 255-763).
T1 sequence: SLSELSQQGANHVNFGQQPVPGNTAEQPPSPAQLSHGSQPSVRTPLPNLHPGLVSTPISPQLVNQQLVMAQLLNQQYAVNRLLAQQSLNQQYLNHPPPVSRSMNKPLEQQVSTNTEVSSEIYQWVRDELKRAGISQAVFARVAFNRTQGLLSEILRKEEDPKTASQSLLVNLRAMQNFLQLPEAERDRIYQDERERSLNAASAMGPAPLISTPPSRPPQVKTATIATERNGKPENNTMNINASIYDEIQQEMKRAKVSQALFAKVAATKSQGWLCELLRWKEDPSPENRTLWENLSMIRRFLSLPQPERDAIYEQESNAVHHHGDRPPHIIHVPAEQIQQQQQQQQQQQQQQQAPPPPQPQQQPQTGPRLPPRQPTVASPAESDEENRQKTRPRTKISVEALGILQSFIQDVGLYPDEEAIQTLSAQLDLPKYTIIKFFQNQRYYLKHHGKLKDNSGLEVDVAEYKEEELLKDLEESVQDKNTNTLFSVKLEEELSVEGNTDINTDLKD

The target in a further data set is T2, GST:HD (UniProt Q01826 640-763).
T2 sequence: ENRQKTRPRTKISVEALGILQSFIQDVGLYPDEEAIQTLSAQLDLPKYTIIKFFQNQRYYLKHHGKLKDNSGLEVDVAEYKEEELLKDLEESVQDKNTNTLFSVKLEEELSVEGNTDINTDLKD

Data set [2] has as its target T1, GST:CD+HD. The source holds these as a separate data set.

B1: probe 13 (IgH MAR core dimer) (dsDNA)
DNA 1: AATTTCTAATATAATTTCTAATAT
DNA 2: ATATTAGAAATTATATTAGAAATT
Consider B1, for which the affinity in the data set with GST:CD+HD [1], expressed as Kd, was 10 nM. This lies in the double-digit nanomolar range.

B2: probe 3 (dsDNA)
DNA 1: TATTAGCAATAATATTAGCAATAA
DNA 2: TTATTGCTAATATTATTGCTAATA
With B2, in the data set with GST:CD+HD [1], the equilibrium dissociation constant (Kd) was found to be 50 nM.

B3: probe 5 (dsDNA)
DNA 1: TATTAATAATAATATTAATAATAA
DNA 2: TTATTATTAATATTATTATTAATA
In the data set with GST:CD+HD [1], B3 gave a Kd of 10 nM. This Kd lies about 5-fold lower than the previous one.

B4: probe 10 (dsDNA)
DNA 1: TATTAGTAATACTATTAGTAATAC
DNA 2: GTATTACTAATAGTATTACTAATA
As to B4, the results for the dissociation constant Kd with GST:CD+HD [1] and in the data set with GST:HD were 20 nM and 200 nM, respectively.

B5: probe 9 (dsDNA)
DNA 1: TATTAGTAATCATATTAGTAATCA
DNA 2: TGATTACTAATATGATTACTAATA
The molecule B5 returned a Kd with GST:CD+HD [1] of 10 nM. In other words, the double-digit nanomolar range.

B6: CSBS dimer (probe 1) (dsDNA)
DNA 1: TATTAGTAATAATATTAGTAATAA
DNA 2: TTATTACTAATATTATTACTAATA
As for B6, the dissociation constant (Kd) with GST:HD turned out to be 200 nM; with GST:CD+HD [2], 10 nM.
